Paper PMC6123492, “Structural and biochemical insights into small RNA 3′ end trimming by Arabidopsis SDN1”
Numbering of substitutions follows the chain as printed.

Columns and labels:
SDN1 Q21A = target: T1, SDN1 Q21A (Arabidopsis thaliana, UniProt A3KPE8 2-409, Q21A); experiment: EMSA; not impaired; EMSA: 50 mM Tris pH 8.0, 100 mM NaCl, 1 mM DTT, no Mg2+, 2 nM RNA, on ice 30 min, 8% native PAGE in 0.5x TBE; NMR: 50 mM Na2HPO4 pH 7.4, 100 mM NaCl, 10% D2O; settings: protein: recombinant; tags: His-SUMO tag removed; label: 5' 32P; single strand
T1 sequence: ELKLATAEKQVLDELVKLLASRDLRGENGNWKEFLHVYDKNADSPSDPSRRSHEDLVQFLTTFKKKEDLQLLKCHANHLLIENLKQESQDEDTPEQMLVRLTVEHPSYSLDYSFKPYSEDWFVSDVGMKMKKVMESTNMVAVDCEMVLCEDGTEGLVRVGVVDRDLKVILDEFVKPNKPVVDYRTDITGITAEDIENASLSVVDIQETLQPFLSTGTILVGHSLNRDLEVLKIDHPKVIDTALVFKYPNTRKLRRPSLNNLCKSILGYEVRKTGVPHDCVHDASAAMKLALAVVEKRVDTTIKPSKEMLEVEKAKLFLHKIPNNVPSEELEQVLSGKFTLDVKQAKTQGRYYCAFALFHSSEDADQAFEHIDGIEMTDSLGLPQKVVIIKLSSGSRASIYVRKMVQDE

SDN1 S22A = target: T2, SDN1 S22A (Arabidopsis thaliana, UniProt A3KPE8 2-409, S22A); experiment: as above; settings: protein: recombinant; tags: His-SUMO tag removed; label: 5' 32P; single strand
T2 sequence: T1 sequence with A20Q, S21A

SDN1 F356A = target: T3, SDN1 F356A (Arabidopsis thaliana, UniProt A3KPE8 2-409, F356A); experiment: EMSA; no Mg2+; not impaired; EMSA: 50 mM Tris pH 8.0, 100 mM NaCl, 1 mM DTT, no Mg2+, 2 nM RNA, on ice 30 min, 8% native PAGE in 0.5x TBE; NMR: 50 mM Na2HPO4 pH 7.4, 100 mM NaCl, 10% D2O; settings: protein: recombinant; tags: His-SUMO tag removed; label: 5' 32P; single strand
T3 sequence: T1 sequence with A20Q, F355A

SDN1 TEV [1] = target: T4, SDN1 TEV (Arabidopsis thaliana, UniProt A3KPE8 2-300+=ENLYFQS+301-409, internal_change); experiment: UV crosslinking + TEV mapping; RNA on DEDDh (ΔC) fragment; EMSA: 50 mM Tris pH 8.0, 100 mM NaCl, 1 mM DTT, no Mg2+, 2 nM RNA, on ice 30 min, 8% native PAGE in 0.5x TBE; NMR: 50 mM Na2HPO4 pH 7.4, 100 mM NaCl, 10% D2O; settings: protein: recombinant; tags: His-SUMO tag removed; label: 5' 32P on target strand; unpaired miR166 3' end (T6-type); target 3' overhang 4 nt
T4 sequence: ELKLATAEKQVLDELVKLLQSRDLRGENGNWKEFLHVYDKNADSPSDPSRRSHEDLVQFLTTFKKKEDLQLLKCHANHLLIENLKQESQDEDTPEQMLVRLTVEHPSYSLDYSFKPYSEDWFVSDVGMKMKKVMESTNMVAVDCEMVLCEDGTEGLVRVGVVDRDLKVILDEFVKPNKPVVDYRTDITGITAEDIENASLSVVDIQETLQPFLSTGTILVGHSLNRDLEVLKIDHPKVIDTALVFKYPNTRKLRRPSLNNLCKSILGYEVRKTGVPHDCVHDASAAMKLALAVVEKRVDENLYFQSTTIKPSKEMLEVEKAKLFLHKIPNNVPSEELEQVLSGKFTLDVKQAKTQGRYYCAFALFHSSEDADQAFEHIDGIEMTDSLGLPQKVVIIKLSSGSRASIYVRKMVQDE

SDN1 TEV [2] = target: T4, SDN1 TEV; experiment: UV crosslinking + TEV mapping; RNA on RRM fragment; EMSA: 50 mM Tris pH 8.0, 100 mM NaCl, 1 mM DTT, no Mg2+, 2 nM RNA, on ice 30 min, 8% native PAGE in 0.5x TBE; NMR: 50 mM Na2HPO4 pH 7.4, 100 mM NaCl, 10% D2O; settings: protein: recombinant; tags: His-SUMO tag removed; label: 5' 32P on target strand; unpaired miR166 3' end (T6-type); target 3' overhang 4 nt

B1: miR166 (ssRNA)
RNA: UCGGACCAGGCUUCAUCCCCC
- binding result (SDN1 Q21A): binds
- binding result (SDN1 S22A): binds
- binding result (SDN1 F356A): binds

B2: miR166:3'-IUU (dsRNA)
RNA 1: UCGGACCAGGCUUCAUCCCCC
RNA 2: GAUUCCCUUGAAGCUUGGUCCGGAUUA
modifications: 5-iodoU at 25,26 of strand 2
- binding result (SDN1 TEV [1]): binds

B3: miR166:5'-IUU (dsRNA)
RNA 1: UCGGACCAGGCUUCAUCCCCC
RNA 2: GAUUCCCUUGAAGCUUGGUCCGGAUUA
modifications: 5-iodoU at 3,4 of strand 2
- binding result (SDN1 TEV [2]): binds
